Test: yeast display, Sf9 membrane polyspecificity reagent, FACS + sequencing; frameworks hold sequencing errors
Procedure, shortened: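 Nanobodies came from a synthetic yeast display library in Saccharomyces cerevisiae BJ5465, induced with galactose for 36–48 hours and stained for 1 hour at 4 °C with 10% biotinylated, detergent-solubilized Sf9 membrane reagent. Cells were enriched on streptavidin microbeads and then FACS-sorted, with low and high (top ~1%) gates set on anti-HA fluorescence for expression and streptavidin fluorescence for reagent binding. Each polyreactivity label reflects the gate a clone came from. Genes were amplified by colony PCR, sequenced by MiSeq 2 × 250 and filtered by CDR length.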
With “QVQRVESGGGLVQAGGSLRLSCAASGRIFWYYAMGWYRQAPGTERQLVAAITSGGRTNFADSVKGRFTISSDNAKNSVYLQMNSLKPEDTAVYYCAAGYYNYLYRLRDQDFDYWGQGTQVTVSS” the “polyreactivity (PSR sort gate)” value was “high polyreactivity”. With “QVQIVESGGGLVQAGGSLRLSCAASGRIFVYNAMGWYRQAPGKERELVAAISSTGSTNYADSVKGRFTISRDNAKNTVYLQMNSLKPEDTAVYYCAAVYYFYGFSGYYGQYDYWGQGSQVTVSS” the “polyreactivity (PSR sort gate)” value was “low polyreactivity”. In the case of “QVQLVESGGGLVQAGGSLRLSCAASGRTFDYYAMGWYRQAPGKERELVAAIRLISGNRYYADSVKGRFTISRDNAKNTVYLQMNSLKPEDTAVYYCAARSDGVPSLYGGMDYWRQGTQVTVSS”, the “polyreactivity (PSR sort gate)” value is reported as “low polyreactivity”. In the case of “QVQLVESGGGLVQAGGSLRLSCAASGSILGYYAMRWYRQAPGKDRELVAAISSGGSTNYADSVKGRFTISRDNAKNTVYLQMNSLKPEDTAVYYCAADRTYHGGFDYWGLGTQVTVSS”, the “polyreactivity (PSR sort gate)” value is reported as “low polyreactivity”. In the case of “QLQRVESGGGLVQAGGSLRLSCAASGSIFNENAMGWYIQAPGKERELVAGIDSGGNTYYADSVKGRFTISRDNAKNTVYLQMISLKPEDTAVYYCAKRGVPVRASATFLFEFDYWGQGTQVPVSS”, the “polyreactivity (PSR sort gate)” value is reported as “low polyreactivity”. For “QVQLVESGGRLVQAGGSLRLSCAASGIIFVSYMGWYIQAPGQERELVAAIRWSGGRTYYADSVKGRFTISRDNAKNTVYLQMTSLKPEDTAVYNCATAPYICAYSLPHHDSWGQGTQVTVSS”, the “polyreactivity (PSR sort gate)” value was “high polyreactivity”. With “QVQLVESGGGLVQAGGSLRLSCAASGFTFSGNAMGWYRQAPGKERELVAAITTTGVRTYYADSVKGRFTISRDNAKNTVYLQMNSLKPEDTAVYYCNKKRTQRVPVRYDYWGQGTQVTVSS” the “polyreactivity (PSR sort gate)” value was “high polyreactivity”. In the case of “QVQLVESGGGLVQAGGSLRLSCAASGIIFYFYAMGWYRQAPGKERELVAAITSSGGSTYYADSVKGRFTISRDNAKNTVYLQMNSLKPEDTAVYYCAADSLHGRKFRGVDYWGQGTQVTVSS”, the “polyreactivity (PSR sort gate)” value is reported as “low polyreactivity”. For “QVQLVESRGGLVQAGGSLRLRCAASGYIYYQYAMGWSRHAPGKETALVGAISLSGGMTYYADSVKGRFTISRDNAKNTVYLQMNSLKPEETGVYFCNAQSRVWCKVYYWGQGTQVTVSS”, the “polyreactivity (PSR sort gate)” value was “high polyreactivity”. In the case of “QVHLVESGGGLVQAGGSLRLSCAASGSIFLVYAMGWYRPAPGKERELVAVISNGGRTNYADSVKGRFTISRDNAKNTVYLQMNSLKPEDTAVYYCAVRGPTDYWADPYSAGDHWGQGTQVTVSS”, the “polyreactivity (PSR sort gate)” value is reported as “high polyreactivity”. In the case of “QVQLVESGRGLVQAGGSLRLSCAASGFTFRRYAMVWYRQAPGKERELVAAITRNGGSTYYADSVKGRFTISRDNAKNTVYFQMNRLKPEDTEVYYCNAVLYTPVYDGFDSWGQGTQVTVSS”, the “polyreactivity (PSR sort gate)” value is reported as “high polyreactivity”. For “QVQLVESGGGLVQAGGSLRLSCAASGITYSYYAMGWYRQAPGKEREFVAAISRTGTSTYYADSVKGRFTISRDNAKNTVYLQMNSLNPEDTADYFCAAVPRHPYHDKYDYWGQGTQVTVSS”, the “polyreactivity (PSR sort gate)” value was “high polyreactivity”. With “QVQLLESGGGLVQAGGSLRLSCAASVFTFYGYAMGWYRQAPGKERELVAAISRRGGSTYYADSVKGRFTISRDNAKNTVYLQMNSLKPEDTAVYYCATDRAYYHSYGRFGYWGQGTQVTVSS” the “polyreactivity (PSR sort gate)” value was “high polyreactivity”. With “QVQLVESGGGLVHAGGSLRLSCAASGFIFARYAMGWYRQAPGKERELVAAINLSGGSTYYADSVKGRFTISRDNAKNTVYLQMNSLKPEDTAVYYCAATDPPYDAFEAKIDYQDFDYWGQGTQVTVSS” the “polyreactivity (PSR sort gate)” value was “low polyreactivity”. In the case of “QVQLVESGGGLVQAGGSLRLSCAASGYTFRYYVMGWYRQAPGKERELVATISRGGRTNYADSVKGRFTISRDNAKNTVYLQMNSLKPEDTAVYYCNADWSRVPYRYDYWGQGTQVTVSS”, the “polyreactivity (PSR sort gate)” value is reported as “high polyreactivity”. For “QVQLVESGGGLVQAGGSLRLTCAASGGTFYANAMGWYRQAPGTERELVAAITSGGSTNYADSVKGRFTISRDNAKNTVYLQMNSLKPEDTAVYYCNAAAQRRYWHSYFRRYDYWGQGTQVTVSS”, the “polyreactivity (PSR sort gate)” value was “low polyreactivity”. For “QVQLVESGGGLVQAGGSLRLSCDASGRTFGVYAMGWYRQAPGKERELVAAISTRGGSTYYADSVKGRFTISRDNAKNTVYLQMNSLKPEDTAVYYCAAEQYVWGYWFNYGYWGQGTQVTVSS”, the “polyreactivity (PSR sort gate)” value was “high polyreactivity”. With “QVQLVESGGGLVQAGGSLRLSCAASGFIFDPYGMGWYRQAPGKERELVAAITASGGTTYYADSVKGRFTISLDYANNTVYLQLNSLKPEDTAVYYCAAAVWYRGWYRYDYWGQGTKVTVSS” the “polyreactivity (PSR sort gate)” value was “low polyreactivity”. In the case of “QVQLVESGGGLVQAGGSLRLICAASGRIWVNAMGWYIQAPGKQREFVAAISTSSASTYYADSVKGRFTISRDNAKNTVYLQMNSLKPEDTAVYYCAARYLGKKYYYWGQGTQVTVSS”, the “polyreactivity (PSR sort gate)” value is reported as “high polyreactivity”. For “QVQLVESGGGLVQAGGSLSLSCAASGGIFAYNAMGWYRQAHGKEREWVATISSGVSTNYADSVKGRFTISRDNAKNTVYLQMNSLKPEDTAVYYCAAAIFITGYGSYGYWGQGTQVTVAS”, the “polyreactivity (PSR sort gate)” value was “low polyreactivity”. For “QVQLVESGGGLVQAGGSLRLSCAASGRIFKGYAMGWYRQAPGKERELVASISKRGVSTYYADSVKGRFTISRDNAKNTVYLQMNSLKPEDTAVYYCNARAPGYYYTRYDYWGQGTQVTVSS”, the “polyreactivity (PSR sort gate)” value was “high polyreactivity”. In the case of “QVQLVQSGGGLVQAGGILRLSCAASGRTFSTNAMGRYIQAPGKERQLVAAITYGSSSTYYADSVKGRFTISRDNAKNTVYFKMNCLKPEDTAVYDCAAGGFFTHRRTYGYWGQGTQVTVSS”, the “polyreactivity (PSR sort gate)” value is reported as “high polyreactivity”. With “QVHLVESGGGLVQAGGSLRLSCAASGSIFYKYVMGWYRQAPGKERELVAAISRGGGSTYYADSVKGRFTISRDNAKNTVYLQMNSLKPEDTAVYYCNAVGRPRYGHGFDHWGQGTQVTVSS” the “polyreactivity (PSR sort gate)” value was “high polyreactivity”. For “QGQLVESGGGLVQAGGSLRLSCAASGRTVGEYTMGWSRPAPGKERELVAAISSAGRTNYADSVKGRFTISRDNAKNTVYLQMHRLKPEDTAVYYCAADWTDDVPGYDYWGQGTKVTVSS”, the “polyreactivity (PSR sort gate)” value was “low polyreactivity”. For “QVQLVESGGGLVQAGGSLRLSCAASGSTFVQYAMGWYRQAPGKERELVAAITSGGRTNYADSVKGRFTISRDNAKNTVYLQMNSLKPEDTAVYYCAARYGSNSPRGYEYYYWGQGTQVTVSS”, the “polyreactivity (PSR sort gate)” value was “low polyreactivity”. In the case of “QVQLVESGGGLVQAGGSLRLSCADSGNIFNYYAMGWYRQAPGKERELVAAISTSGGRTYYADSVKGRFTISRDNAKNTVYLQMNSLKPEDTAVYYCAKVNRLYTYDYWGQGTQVTVSS”, the “polyreactivity (PSR sort gate)” value is reported as “high polyreactivity”. For “QVQLVESGGGLVQAGGSLRLSCAASGRTFGYNAMGWYRQAPGTERELVAAIRTIGDSTYYADSVKGRFTISRDNAKNTVYLQMNILKPVDTSVYYCAARKLRSRFDYWGQGTQVTVSS”, the “polyreactivity (PSR sort gate)” value was “high polyreactivity”. For “QVQLVESAGGLVQAGGSLRLSFAASGFTFAKYAMGWYRQAPGKERELVAGISRRGGSTYYADSVKGRFTISRDNAKNTVYLQMNSLKPEDTAVYYCNADLVRPGYYRYDYWGQGTQVTVSS”, the “polyreactivity (PSR sort gate)” value was “high polyreactivity”. For “QVQLVESGGGLVQAGGSLRLSCAASGRIFPSYAMGWYRQAPGKERELVATISSGGRTYYADSVKGRFTISRDNAKNTVYLQMTSLKPEDTAVYYCARRSLYHVRTQIYEYWGQGTQVTVSS”, the “polyreactivity (PSR sort gate)” value was “low polyreactivity”. For “QDQLVESAGGLVQAGGSLRLSCAATASTFHLYAMGWYRQAAGKERELVASIRWSGGSTYYADSVKGRFTISRDNAKNTVYLQMNSLKPEDTAVYYCASEAVPYWSWGRPMYYWGQGTQVTVSS”, the “polyreactivity (PSR sort gate)” value was “high polyreactivity”. In the case of “QVQLVESGGGLVQAGGSLRLSCAASGGMGWYRQAPGKERELVATISSVGSTNYADSVKGRFTISRDNAKNTVYLQMNRLKPEDTAVYYCNATGVQYFLYGYWGQGTQVTVSS”, the “polyreactivity (PSR sort gate)” value is reported as “low polyreactivity”. With “QVQLVESGGGLVQAGGSLRLSCAASGLTFPWYAMGWYRQAPGKERELVAGISWSGGSTYYADSVKGRFTNSRDNAKNTVYLQMNSLKPEDTAVYYCKLVKTTSTLGKRRYDYWGQGTQVTVSS” the “polyreactivity (PSR sort gate)” value was “high polyreactivity”. In the case of “QVQLVESGGGLVKAGGSLRLSCAASGSTFPYYAMGWYRQAPGTEREFVAAISSSGGSTYYADSVKGRFTISRDNAKNTVYLQMNSLKPEDTAVYYFAAQGARRNYYRYGTYTNRRYDYWGQGTQVTVSS”, the “polyreactivity (PSR sort gate)” value is reported as “high polyreactivity”. With “QVQLVESGGGLVQAGGSLRISCAASGSIFSFYAMGWYRQAPGKERELVAAISSGGSTYYADSVKGRFTISRDNAKNTVYLQMNSLKPEDTAVYYCAHGFAQYGLDLDPGDYDYWGQGTQVTVSS” the “polyreactivity (PSR sort gate)” value was “low polyreactivity”. With “QVQLVESGGGLVQAGGSLRLSCAASGYTFGFYAMGWYRQAPGKERELVAAISSSGVSTSYADSVKGRFTISRDNAKNTVYLHMNSLKPEDNAVYYCNAPSYYYAYDYWGQGTQVTVSS” the “polyreactivity (PSR sort gate)” value was “high polyreactivity”. With “QVQLVESGGGLVQAGGSLRLSCAASGLTFSQNAMGWNRQPPGKERELVGAITRSGSTTHYADSVKGRFTISRDKAKNTVYLQMNSLKPEDTAVYYCAAVAFQTRYYYWGQGTQVTLSS” the “polyreactivity (PSR sort gate)” value was “high polyreactivity”. With “QVQLVESGGGLVQAGGSLRLSFAASGIIFRYSAMGWYRQEPGKERELVAAISRSGARTYYADSVKGRFTISRDNAKNTVYLQMNSLKPEDTAVYYCATDPTSGRFYYWGQGTQVTVSS” the “polyreactivity (PSR sort gate)” value was “high polyreactivity”. In the case of “QVQLVESGGGLVQAAGSLRLSCAASGSIFDPNVMGWYRQAPGKERELVATISSDGTTTYADSVKGRFTISRDNAKNTVYLQMNSLKPEDTAVYYCATEWDIDPRRSVGYPIGYGYWGQGTQVTVSS”, the “polyreactivity (PSR sort gate)” value is reported as “low polyreactivity”. For “QVQLVESGGGLVQAGGSLRLSCAASGSIFWLYAMGWYRQAPGKERELVAAITRRGGSTYYADSVKGRFTISRDNAKNTVYLQMNSLKPEDTAVYYCNRLYYSGSGASLDYWGQGTQVTVSS”, the “polyreactivity (PSR sort gate)” value was “high polyreactivity”. With “QVQLVESGGGLVQAGGSLRLSCAASGRIFRRNAMGWYRQAPGKERELVAAISTRGSSTYYADSVKGRFTISRDNAKNTVYLQMNSLKPEDTAVYYCAADAYFIYSRYWYDYWGQGTQVTVSS” the “polyreactivity (PSR sort gate)” value was “high polyreactivity”. For “QVQLVESGGGLVQAGGSLRLSCAASGYTFRYAMGWYRQAPGKERELVAAISSRGSSTYYADSVKGRFTISRDNAKNTVYLQMNSLKPEDTAVYYCAAKHFVKGDYWGQGTQVTVSS”, the “polyreactivity (PSR sort gate)” value was “high polyreactivity”. With “QVQLVESGGGLVQAGGSLRLSCAASGIIFYAYAMGWYRQAPGKETELVAAITFSAVSTNYADSVKGRFTISRDYAKNTVYLQMNSLKPEDTAVYYCAAEAYKHGVWDYDYWGQGTQVTVSS” the “polyreactivity (PSR sort gate)” value was “low polyreactivity”. With “QVELVESGGGLVQAGGSLRLSCAASGRIFFYNGMGWYRQAPGKERELVAAINRSGGSTYYADSVKGRFTISRDNAKNTVYLQMNSLKPEDTAVYYCNAASFTVPMDYWGHGTQVTVSS” the “polyreactivity (PSR sort gate)” value was “low polyreactivity”.
